Publication PMC5680108 (Cellular microbiology, 2017)
Like-named read-outs stand apart in the source and are kept apart here.

B1: GST-OspCB31, GST fused to OspC from B. burgdorferi strain B31-A3 (natural protein)
chain: CNNSGKDGNTSANSADESVKGPNLTEISKKITDSNAVLLAVKEVEALLSSIDEIAAKAIGKKIHQNNGLDTENNHNGSLLAGAYAISTLIKQKLDGLKNEGLKEKIDAAKKCSETFTNKLKEKHTDLGKEGVTDADAKEAILKTNGTKTKGAEELGKLFESVEVLSKAAKEMLANSVKELTSPVVAESPKKP

Assays:
Experiment in all cases: ELISA
[1] = target: complement component C4b, human (human) (UniProt P0C0L4)
[2] = target: T1, complement component C4b, human (human, UniProt P0C0L4 20-675; P0C0L4 757-1446; P0C0L4 1454-1744)
[3] = target: T1, complement component C4b, human; remark: listed apart in the source

T1 sequence (P0C0L4 20-675, chain 1 of 3): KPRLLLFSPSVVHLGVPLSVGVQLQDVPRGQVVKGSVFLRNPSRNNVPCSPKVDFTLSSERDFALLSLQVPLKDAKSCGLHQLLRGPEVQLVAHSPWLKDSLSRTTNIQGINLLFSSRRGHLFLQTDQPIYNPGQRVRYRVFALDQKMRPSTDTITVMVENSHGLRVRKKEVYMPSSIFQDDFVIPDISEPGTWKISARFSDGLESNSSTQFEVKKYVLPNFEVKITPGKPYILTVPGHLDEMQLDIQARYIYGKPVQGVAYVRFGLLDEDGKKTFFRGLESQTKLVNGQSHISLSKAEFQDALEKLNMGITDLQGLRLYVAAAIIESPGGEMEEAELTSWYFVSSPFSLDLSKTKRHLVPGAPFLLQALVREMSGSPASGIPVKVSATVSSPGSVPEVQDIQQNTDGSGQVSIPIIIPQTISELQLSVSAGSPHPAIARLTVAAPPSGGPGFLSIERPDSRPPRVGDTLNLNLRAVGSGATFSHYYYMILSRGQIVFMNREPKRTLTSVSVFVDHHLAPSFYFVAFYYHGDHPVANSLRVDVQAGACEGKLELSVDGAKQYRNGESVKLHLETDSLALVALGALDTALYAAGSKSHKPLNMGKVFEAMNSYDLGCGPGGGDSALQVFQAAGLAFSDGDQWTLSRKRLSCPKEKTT
T1 sequence (P0C0L4 757-1446, chain 2 of 3): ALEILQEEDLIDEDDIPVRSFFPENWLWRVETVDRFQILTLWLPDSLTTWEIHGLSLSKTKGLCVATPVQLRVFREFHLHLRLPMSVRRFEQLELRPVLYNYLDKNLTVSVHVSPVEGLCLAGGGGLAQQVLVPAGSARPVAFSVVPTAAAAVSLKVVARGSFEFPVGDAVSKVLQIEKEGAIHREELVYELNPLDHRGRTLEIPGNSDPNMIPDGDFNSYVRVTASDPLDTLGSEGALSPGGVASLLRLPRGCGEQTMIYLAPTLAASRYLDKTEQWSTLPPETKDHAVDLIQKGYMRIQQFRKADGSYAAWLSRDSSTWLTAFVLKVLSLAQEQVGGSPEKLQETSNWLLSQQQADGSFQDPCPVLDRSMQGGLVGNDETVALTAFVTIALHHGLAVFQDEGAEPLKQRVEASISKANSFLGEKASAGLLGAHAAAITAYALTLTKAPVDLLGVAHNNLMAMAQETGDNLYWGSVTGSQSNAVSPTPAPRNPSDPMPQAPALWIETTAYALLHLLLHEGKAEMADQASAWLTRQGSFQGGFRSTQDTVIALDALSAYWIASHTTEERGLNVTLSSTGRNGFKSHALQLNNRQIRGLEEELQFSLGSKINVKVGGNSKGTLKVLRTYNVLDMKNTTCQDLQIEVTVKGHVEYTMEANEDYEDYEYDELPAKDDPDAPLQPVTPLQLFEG
T1 sequence (P0C0L4 1454-1744, chain 3 of 3): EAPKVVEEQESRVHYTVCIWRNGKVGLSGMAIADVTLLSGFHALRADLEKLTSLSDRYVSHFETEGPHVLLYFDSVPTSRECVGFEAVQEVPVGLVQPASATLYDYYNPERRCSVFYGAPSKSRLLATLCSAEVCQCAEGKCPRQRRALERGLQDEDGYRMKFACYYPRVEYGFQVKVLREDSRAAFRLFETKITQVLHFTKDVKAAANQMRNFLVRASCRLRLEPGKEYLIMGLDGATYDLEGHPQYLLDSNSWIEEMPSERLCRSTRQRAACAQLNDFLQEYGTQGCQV
Chain of complement component C4b, human (human) (P0C0L4 20-675, chain 1 of 3): as the sequence (P0C0L4 20-675, chain 1 of 3) above
Chain of complement component C4b, human (human) (P0C0L4 757-1446, chain 2 of 3): as the sequence (P0C0L4 757-1446, chain 2 of 3) above
Chain of complement component C4b, human (human) (P0C0L4 1454-1744, chain 3 of 3): as the sequence (P0C0L4 1454-1744, chain 3 of 3) above

| Molecule | Kd [1] | Kd [2] | Kd [3] |
| --- | --- | --- | --- |
| GST-tagged OspC from B. burgdorferi strain N40 clone D10/E9 (natural protein) | 233 nM | – | – |
| B1 | – | ~414 nM | 476 nM |
